Target: SARS-CoV-2 spike RBD protein (SARS-CoV-2, UniProt P0DTC2 319-541)
Experiment: electrochemical aptasensor

B1: thiolated SARS-CoV-2 RBD aptamer (Song et al. 2020) (ssDNA)
DNA: TTTTTCCAGCCACCGACCTTGTGCTTTGGGAGTGCTGGTCCAAGGGCGTTAAGGACA
modifications: 5'-thiol, TCEP reduced, immobilized on SPCE/HA-LSCF
- binding result: binds
